Test results as given in patent US12410245 (UNIVERSITY OF VIRGINIA PATENT FOUNDATION, dated 2025).
Substitutions are numbered along the chain they refer to. Several values for one entry are separate records, joined by “and”; a condition that tells them apart may be missing. Equal values may be shown once. Each block holds one molecule with its values, some of them ahead of it.

Legend:
FnIII9-4G-10 [1] = target: FnIII9-4G-10 (UniProt P02751); assay: SPR (Biacore 2000), integrin immobilized, Fn fragment as analyte
FnIII9*10 [2] = target: FnIII9*10 (UniProt P02751); assay: as above
FnIII10-14 = target: T1, FnIII10-14 (UniProt P02751-8 1447-1901); assay: SPR, Fn fragment immobilized; SPR, FnIII10-14 immobilized; fitted KD given in the text (FIGS. 9D and 9E)
T1 construct: domain: FnIII10-14; also called FnIII10 (FnIII10-14); Fn fragment including the 10th type III repeat

FnIII6-9 = target: T2, FnIII6-9 (UniProt P02751-1 1085-1446, limits assumed); assay: SPR, Fn fragment immobilized; SPR, FnIII6-9 immobilized (other target: fragment with the 9th repeat)
T2 construct: domain: FnIII6-9; also called FnIII9 (FnIII6-9); Fn fragment including the 9th type III repeat

FnIII9-4G-10 [3] = target: FnIII9-4G-10 (UniProt P02751); assay: phage ELISA on maleimide plates (HRP anti-M13); absorbance (450 nm minus 650 nm) on 4G divided by absorbance on 9*10
FnIII9-4G-10 [4] = target: FnIII9-4G-10 (UniProt P02751); assay: SPR
FnIII9*10 [5] = target: FnIII9*10 (UniProt P02751); assay: SPR
FnIII9-4G-10 [6] = target: FnIII9-4G-10 (UniProt P02751); assay: SPR, ratio of the KD values (107 nM on FnIII9*10 against 16 nM on FnIII9-4G-10)

Chain of FnIII9-4G-10 (P02751 other isoform, or with tags, fused parts or gaps): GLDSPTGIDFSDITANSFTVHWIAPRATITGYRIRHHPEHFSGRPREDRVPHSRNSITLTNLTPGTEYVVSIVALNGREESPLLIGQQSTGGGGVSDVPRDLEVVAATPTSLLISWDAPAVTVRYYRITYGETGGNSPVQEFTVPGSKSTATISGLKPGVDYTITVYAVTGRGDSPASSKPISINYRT
T1 sequence (P02751 other isoform, or with tags, fused parts or gaps limits assumed): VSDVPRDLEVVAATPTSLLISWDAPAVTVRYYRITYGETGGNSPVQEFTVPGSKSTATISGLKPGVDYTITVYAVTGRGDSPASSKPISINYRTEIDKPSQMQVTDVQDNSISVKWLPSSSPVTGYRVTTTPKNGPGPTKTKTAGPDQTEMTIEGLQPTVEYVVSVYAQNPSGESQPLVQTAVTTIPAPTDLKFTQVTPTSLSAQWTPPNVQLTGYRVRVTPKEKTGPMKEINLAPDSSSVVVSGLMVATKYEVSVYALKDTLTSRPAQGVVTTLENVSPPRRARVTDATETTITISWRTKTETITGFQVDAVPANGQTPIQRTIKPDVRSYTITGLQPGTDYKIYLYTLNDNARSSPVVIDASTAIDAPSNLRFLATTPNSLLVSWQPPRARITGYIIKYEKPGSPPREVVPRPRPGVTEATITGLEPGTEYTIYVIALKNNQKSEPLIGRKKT
T2 sequence (P02751 other isoform, or with tags, fused parts or gaps limits assumed): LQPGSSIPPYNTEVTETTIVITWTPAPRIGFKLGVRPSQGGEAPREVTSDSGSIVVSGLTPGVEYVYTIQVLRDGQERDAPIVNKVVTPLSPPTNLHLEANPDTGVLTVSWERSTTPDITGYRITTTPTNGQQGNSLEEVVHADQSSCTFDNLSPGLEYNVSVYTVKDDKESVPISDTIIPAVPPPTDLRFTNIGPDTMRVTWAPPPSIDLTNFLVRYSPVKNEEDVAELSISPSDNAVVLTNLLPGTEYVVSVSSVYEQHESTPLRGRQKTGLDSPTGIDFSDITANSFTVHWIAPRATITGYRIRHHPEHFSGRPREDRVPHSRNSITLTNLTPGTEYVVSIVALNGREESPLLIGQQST

B2: H5 Modified Clone R1F8/R1H8 (scFv)
scFv: EVQLLESGGGLVQPGGSLRLSCAASGFTFSSYAMSWVRQAPGKGLEWVSDIYDGGGTNYADSVKGRFTTSRDNSKNTLYLQMNSLRAEDTAVYYCTKTADNFDYWGQGTLVTVSSGGGGSGGGGSGGGGSTDIQMTQSPSSLSASVGDRVTITCRASQSISSYLNWYQQKPGKAPKLLIYAASTLQSGVPSRFSGSGSGTDFTLTISSLQPEDFATYYCQQANSAPTTFGQGTKVEIKRAAA
4G/9*10 Ratio (FnIII9-4G-10 [3]): 1.42 and 1.33

B3: H5 Modified Clone R2G3 (scFv)
scFv: B2 scFv with P41S, N73D, T96A
4G/9*10 Ratio (FnIII9-4G-10 [3]): 2.53

B5: H5 Modified Clone R1H6 (scFv)
scFv: B2 scFv with L78M, T96A
4G/9*10 Ratio (FnIII9-4G-10 [3]): 1.62

More lines, now with the values ahead:

Kd (FnIII9-4G-10 [1]): 40 nM
Kd (FnIII9*10 [2]): 40 nM
Molecule: integrin αvβ3 (R&D Systems) (from UniProt P06756 31-992; P05106 27-718) (receptor)

Kd (FnIII10-14): 5100 nM
Kd (FnIII6-9): 34.8 nM
4G/9*10 Ratio (FnIII9-4G-10 [3]): 1.21 and 1.02 and 1.06
Kd (FnIII9-4G-10 [4]): 16 nM
Kd (FnIII9*10 [5]): 107 nM
selectivity of binding (fold, against FnIII9-10 as reference) (FnIII9-4G-10 [6]): 10 fold
B1: H5 scFv (scFv)
scFv: B2 scFv with T96A
notes: Soluble scFv from E. coli, purified by Protein-A; also called clone H5; H5 antibody

4G/9*10 Ratio (FnIII9-4G-10 [3]): 1.49
B4: H5 Modified Clone R4B8 (scFv)
scFv: B2 scFv with T96A, D103Y
